# According to article PMC5392723:
# T1: Glo qRRM1,2 W58A (Drosophila, UniProt Q9VGH5 49-225, W58A)
# T1 sequence: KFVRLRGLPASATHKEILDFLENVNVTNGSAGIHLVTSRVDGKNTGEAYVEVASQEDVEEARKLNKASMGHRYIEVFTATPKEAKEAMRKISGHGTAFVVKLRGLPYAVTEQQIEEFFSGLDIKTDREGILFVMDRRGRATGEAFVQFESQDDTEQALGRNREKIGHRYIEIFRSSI
# T2: Glo qRRM2 (Drosophila, UniProt Q9VGH5 146-225)
# T2 sequence: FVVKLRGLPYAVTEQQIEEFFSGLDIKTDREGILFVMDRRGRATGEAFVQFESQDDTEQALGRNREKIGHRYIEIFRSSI
# T3: Glo qRRM1 (Drosophila, UniProt Q9VGH5 49-129)
# T3 sequence: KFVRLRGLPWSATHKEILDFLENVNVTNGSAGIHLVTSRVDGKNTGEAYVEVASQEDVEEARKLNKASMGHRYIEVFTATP
# T4: Glo qRRM3 (Drosophila, UniProt Q9VGH5 476-565)
# T4 sequence: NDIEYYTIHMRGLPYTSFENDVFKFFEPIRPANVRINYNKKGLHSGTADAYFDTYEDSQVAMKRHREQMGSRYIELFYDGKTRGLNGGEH
# T5: Glo qRRM1,2 R52A,K149A (Drosophila, UniProt Q9VGH5 49-225, R52A;K149A)
# T5 sequence: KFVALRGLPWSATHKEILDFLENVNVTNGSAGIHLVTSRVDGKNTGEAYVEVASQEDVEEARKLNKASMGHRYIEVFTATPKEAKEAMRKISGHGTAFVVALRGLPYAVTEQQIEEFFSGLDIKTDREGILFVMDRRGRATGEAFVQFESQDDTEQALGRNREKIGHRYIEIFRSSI
# Tests used:
# Assay in all cases: EMSA
# Glo qRRM1,2 W58A = molecular target: T1, Glo qRRM1,2 W58A
# Glo qRRM2 = molecular target: T2, Glo qRRM2
# Glo qRRM1 = molecular target: T3, Glo qRRM1
# Glo qRRM3 = molecular target: T4, Glo qRRM3
# Glo qRRM1,2 R52A,K149A = molecular target: T5, Glo qRRM1,2 R52A,K149A
binder,measurement,setting,value
AGGGA (ssRNA) [G-tract RNA 5'-AGGGA],binding result,"Glo qRRM1,2 W58A",binds
same,Kd,Glo qRRM2,620 nM
same,Kd,Glo qRRM1,180 nM
same,Kd,Glo qRRM3,170 nM
same,binding result,"Glo qRRM1,2 R52A,K149A",binds
